Results from publication PMC3547832, “Secondary Metabolism and Development Is Mediated by LlmF Control of VeA Subcellular Localization in Aspergillus nidulans” (PLoS Genetics, 2013).

T1: His6-VeA-S-tag (recombinant) (Aspergillus nidulans, UniProt C8VTV4 1-573)
T1 construct: VeA, Aspergillus nidulans; E. coli codon-optimized version obtained from Reinhard Fischer, EcoRI-XhoI fragment in pRSF-1b; source: E. coli BL21 (λDE3), purified (Ni-NTA); not shown: His6, N-terminal, kept; S-tag, C-terminal, kept
T1 sequence (looked up): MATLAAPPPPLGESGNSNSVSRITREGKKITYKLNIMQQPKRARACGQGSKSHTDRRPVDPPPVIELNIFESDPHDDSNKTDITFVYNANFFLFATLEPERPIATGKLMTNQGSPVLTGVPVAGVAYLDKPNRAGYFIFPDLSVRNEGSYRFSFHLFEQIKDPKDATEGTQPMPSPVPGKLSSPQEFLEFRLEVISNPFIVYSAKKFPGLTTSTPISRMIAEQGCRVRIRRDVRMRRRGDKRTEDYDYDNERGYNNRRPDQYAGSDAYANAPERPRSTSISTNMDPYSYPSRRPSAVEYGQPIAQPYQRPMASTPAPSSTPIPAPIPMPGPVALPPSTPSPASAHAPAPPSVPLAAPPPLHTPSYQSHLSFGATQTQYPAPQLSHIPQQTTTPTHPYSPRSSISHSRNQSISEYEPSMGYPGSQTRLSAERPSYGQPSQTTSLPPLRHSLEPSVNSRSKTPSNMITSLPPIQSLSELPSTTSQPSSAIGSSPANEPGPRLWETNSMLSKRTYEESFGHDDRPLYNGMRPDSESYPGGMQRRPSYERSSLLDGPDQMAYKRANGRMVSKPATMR

B1: GST-VelB (recombinant) (natural protein, Aspergillus nidulans, UniProt C8VTS4 1-369, looked up)
chain: MYAVEDRAHSGHHPPPLSMDRIPPPSTMYPSSAGPSAMVSPAGQPEPESLSTVHDGRIWSLQVVQQPIRARMCGFGDKDRRPITPPPCIRLIVKDAQTQKEVDINSLDSSFYVVMADLWNADGTHEVNLVKHSATSPSISTAMSSSYPPPPHPTSSDYPASYQTNPYGQPVGQPVGQPVGYAGVGNYYGGSTQLQYQNAYPNPQAQYYQPMYGGMAQPQMPAAQPVTPGPGGMFTRNLIGCLSASAYRLYDTEDKIGVWFVLQDLSVRTEGIFRLKFSFVNVGKSVSDLPQSDIAEVINKGTAPILASTFSEPFQVFSAKKFPGVIESTPLSKVFANQGIKIPIRKDGVKGQGSRGRHSDEDDGLDNEY
notes: VelB, Aspergillus nidulans; GST fusion in pGEX; source: E. coli BL21 (λDE3), purified (glutathione sepharose 6B)
B2: GST-LaeA (recombinant) (natural protein, Aspergillus nidulans, UniProt C8VQG9 1-374, looked up)
chain: MFEMGPVGTRLPAMTSPAHNHYSYHSPTSSDRGRSRQNSDAMDIQSITEREPATRYAVAGGPAPWNRNGSPSMSPMYSNNSERNQFHEENGRTYHGFRRGMYFLPCDEQEQDRLDIFHKLFTVARVSESLIYAPHPTNGRFLDLGCGTGIWAIEVANKYPDAFVAGVDLAPIQPPNHPKNCEFYAPFDFEAPWAMGEDSWDLIHLQMGCGSVMGWPNLYRRIFAHLRPGAWFEQVEIDFEPRCDDRSLDGTALRHWYDCLKQATAETMRPIAHSSRDTIKDLQDAGFTEIDHQIVGLPLNPWHQDEHERKVARWYNLAVSESIENLSLAPFSRVYRWPLERIQQLAADVKSEAFNKEIHAYNILHIYQARKPLR
notes: LaeA, Aspergillus nidulans, locus AN0807; GST fusion in pGEX; source: E. coli BL21 (λDE3), purified (glutathione sepharose 6B)

Experiments:
LaeA = LaeA (Aspergillus nidulans, UniProt C8VQG9); conditions: labelled compound; room temperature, UV on ice 30 min; GST-LaeA
[1] = biological target: T1, His6-VeA-S-tag (recombinant); assay: pull-down; 10 µg purified GST tagged protein, glutathione sepharose and purified His6-VeA-S-tag, 3 hours at 4°C in PBS buffer with 1 mM DTT, pH 7.3; anti-S-tag immunoblot; conditions: both partners purified

Row | Molecule | UV crosslinking of 3H-SAM, SDS-PAGE and tritium phosphor screen (LaeA) | binding result [1]
1 | C[S+](CC[C@H](N)C(=O)O)C[C@H]1O[C@@H](n2cnc3c(N)ncnc32)[C@H](O)[C@@H]1O (stereo partly drawn) [S-adenosyl methionine] | these results indicate that both LaeA and LlmF have the ability to bind SAM | 
2 | B1 |  | binds
3 | B2 |  | binds
